The results in this text go back to patent US20110212853.

The test system of data set [1] is recombinant human MCP-1 N1pE (human MCP-1 with an N-terminal pyroglutamate).
Data set [2] has as its system recombinant human MCP-1(1-76) starting with an N-terminal glutamine.

With “recombinant human Aminopeptidase P (R&D Systems)”, the “N-terminal cleavage, Maldi-TOF mass spectrometry” value in data set [1] is “conferring resistance against N-terminal degradation by post-proline cleaving enzymes, e.g. DP4 and aminopeptidase P”; in data set [2], “cleavage of human MCP-1(1-76) bearing an N-terminal glutaminyl residue by recombinant human Aminopeptidase P”.
